# Assay results from patent publication US20250382372A1 (OXFORD UNIVERSITY INNOVATION, published 2025).
# Key:
# [1] = biological target: human CD1a expressed on cells (human) (UniProt P06126); assay: flow cytometry, ear skin cells of a CD1a transgenic mouse given isotype control (panel 'CD1a : iso'), stained with anti-CD1a SK9; cell population not named on the sheet
# [2] = biological target: human CD1a expressed on cells (human) (UniProt P06126); assay: flow cytometry, ear skin cells of a CD1a transgenic mouse given antibody 116 (100 ug i.p. on days 0, 2 and 4; panel 'CD1a : OX116'), stained on day 5 with anti-CD1a SK9
# [3] = biological target: human CD1a expressed on cells (human) (UniProt P06126); assay: flow cytometry, ear skin cells of a CD1a transgenic mouse given isotype control (row 'CD1a : iso'), stained with anti-CD1a HI149; cell population not named on the sheet
# [4] = biological target: human CD1a expressed on cells (human) (UniProt P06126); assay: flow cytometry, ear skin cells of a CD1a transgenic mouse given antibody 116 (100 ug i.p. on days 0, 2 and 4; row 'CD1a : OX116'), stained on day 5 with anti-CD1a HI149; the cloud of cells lies at the lower edge of the gate
# [5] = biological target: Cynomolgus monkey CD1a expressed on HEK-293 cells (Cynomolgus monkey); assay: flow, HEK-293, Ab 0.01 µg/ml
# [6] = biological target: T1, human CD1b expressed on HEK-293 cells (human, UniProt P29016 18-333; P61769 21-119); assay: flow cytometry, HEK-293
# T1 construct: whole, on cells; also called HEK - CD1b
# Description: (§1) CD1a-specific antibodies were identified by flow cytometry. Binding to proteins expressed on HEK, CIR and MOLT4 cell lines was assessed. […] The C1R-CD1a, C1R-empty vector and MOLT4 cell lines were washed in 1×PBS on the day required. All cell lines were counted and resuspended in 1×PBS and then stained for 30 minutes at 37° C. using the DiI or DiO cellular stains (Invitrogen). Cells were washed with flow cytometry buffer (1% bovine serum albumin, 2 mM EDTA and 0.1% sodium azide in PBS) before mixing 2 DiI-stained and DiO-stained populations together. The cells (20 μl/well) were then added to dilutions of antibody sample (B cell culture supernatant, TAP supernatant, clone supernatant, purified antibody solution) (20 μl/well) and incubated for 1 hour at 4° C. in a flow cytometry assay plate, before being washed with flow cytometry buffer. 10 μl/well of Alexafluor647-conjugated goat anti-species IgG Fc-specific F(ab′)2 fragment (Jackson ImmunoResearch), diluted 1:2500 in flow cytometry buffer, was added and incubated at 4° C. for 30 minutes, followed by washing with wash buffer. The fluorescence intensity was then measured on an iQue screener PLUS.
# (§2) HEK-293 cells were transiently transfected with human CD1a, CD1b, CD1c or CD1d and co-transfected with human β2M.
# [7] = biological target: T2, human CD1d expressed on HEK-293 cells (human, UniProt P15813 20-335; P61769 21-119); assay: flow cytometry, HEK-293
# T2 construct: whole, on cells; also called HEK - CD1d
# Description: as §1, §2
# [8] = biological target: T3, human CD1c expressed on HEK-293 cells (human, UniProt P29017 18-333; P61769 21-119); assay: flow cytometry, HEK-293
# T3 construct: whole, on cells; also called HEK - CD1c
# Description: as §1, §2
# [9] = biological target: Cynomolgus monkey CD1a expressed on HEK-293 cells (Cynomolgus monkey); assay: flow, HEK-293, Ab 10 µg/ml
# [10] = biological target: Cynomolgus monkey CD1a protein (Cynomolgus monkey); assay: ELISA, Ab 0.1 µg/ml
# [11] = biological target: Cynomolgus monkey CD1a protein (Cynomolgus monkey); assay: ELISA, Ab 0.01 µg/ml
# [12] = biological target: Cynomolgus monkey CD1a expressed on HEK-293 cells (Cynomolgus monkey); assay: flow, HEK-293, Ab 0.1 µg/ml
# [13] = biological target: Cynomolgus monkey CD1a protein (Cynomolgus monkey); assay: ELISA, Ab 1 µg/ml
# [14] = biological target: Cynomolgus monkey CD1a expressed on HEK-293 cells (Cynomolgus monkey); assay: flow, HEK-293, Ab 1 µg/ml
# [15] = biological target: Cynomolgus monkey CD1a protein (Cynomolgus monkey); assay: ELISA, Ab 10 µg/ml
# [16] = biological target: T4, Human CD1a/beta2m heterodimer (HEK293S, deglycosylated, zippers and tags cleaved) (human, UniProt P61769 21-119); assay: SPR (Biacore 3000): biotinylated OX16 scFv on a streptavidin chip, CD1a-endo (CD1a with endogenous lipids) injected up to 1000 nM; response fitted to a 1:1 specific binding model; unit from the legend paragraph 293
# T4 construct: Protein of the crystal structures and of the Biacore 3000 SPR experiments; Carries endogenous lipids (CD1a-endo) or a loaded lipid (named under assay); also called CD1a-endo; CD1a loaded with a specific lipid
# Description: (§3) Depending on the experiment biotinylated scFv molecules were coupled onto the chip surface until a total of 150 or 1000 response units per flow cell were achieved. […] Each lipid was solubilised up to 5-10 mM in 20 mM Tris pH8, 150 mM NaCl and 0.5% CHAPS. CD1a-endo was incubated at room temperature overnight with 15-40× molar excess of lipid. The mixture was subsequently purified by anion exchange chromatography using a MonoQ column (GE Healthcare). Fractions corresponding to lipid-loaded CD1a were pooled together and up-concentrated to 5 μM. Serial dilutions of CD1a up to a maximum concentration of 1 μM were injected for 60 s at 25 C in 20 mM Tris pH8, 150 mM NaCl buffer. The dissociation time between the injections was between 5 minutes up to 1 h. […] Each injection cycle consisted of a 60 s injection of 1 μM CD1a alone immediately followed by increasing concentrations of TCRs (0 to 50 μM) supplemented with 100 nM CD1a to prevent further dissociation of CD1a from the coupled Ab fragment. The runs were performed at 25 C in 20 mM Tris pH8, 150 mM NaCl, 0.5% BSA buffer. In all SPR experiments relative binding response was calculated by subtracting the non-specific response on a reference cell, where an unrelated protein was coupled. The binding curves were obtained by fitting the measured response to a 1:1 specific binding model in GraphPad.
# [17] = biological target: T4, Human CD1a/beta2m heterodimer (HEK293S, …); assay: SPR (Biacore 3000): biotinylated OX16 scFv on a streptavidin chip, CD1a-GD3 (CD1a loaded with GD3 ganglioside) injected up to 1000 nM; 1:1 specific binding fit; unit from the legend paragraph 293
# Description: as §3
# [18] = biological target: T4, Human CD1a/beta2m heterodimer (HEK293S, …); assay: SPR (Biacore 3000): biotinylated OX16 scFv on a streptavidin chip, CD1a-SM24:1 (CD1a loaded with sphingomyelin 24:1) injected up to 1000 nM; 1:1 specific binding fit; unit from the legend paragraph 293
# Description: as §3
# [19] = biological target: T4, Human CD1a/beta2m heterodimer (HEK293S, …); assay: SPR (Biacore 3000): biotinylated OX16 scFv on a streptavidin chip, CD1a-LPC (CD1a loaded with lysophosphatidylcholine) injected up to 1000 nM; 1:1 specific binding fit; unit from the legend paragraph 293
# Description: as §3
# [20] = biological target: T4, Human CD1a/beta2m heterodimer (HEK293S, …); assay: SPR (Biacore 3000): biotinylated OX116 scFv on a streptavidin chip, CD1a-endo (CD1a with endogenous lipids) injected up to 1000 nM; 1:1 specific binding fit; unit from the legend paragraph 293
# Description: as §3
# [21] = biological target: T4, Human CD1a/beta2m heterodimer (HEK293S, …); assay: SPR (Biacore 3000): biotinylated OX116 scFv on a streptavidin chip, CD1a-LPC (CD1a loaded with lysophosphatidylcholine) injected up to 1000 nM; 1:1 specific binding fit; unit from the legend paragraph 293
# Description: as §3
# [22] = biological target: T4, Human CD1a/beta2m heterodimer (HEK293S, …); assay: SPR (Biacore 3000): biotinylated OX116 scFv on a streptavidin chip, CD1a-GD3 (CD1a loaded with GD3 ganglioside) injected up to 1000 nM; 1:1 specific binding fit; unit from the legend paragraph 293
# Description: as §3
# [23] = biological target: T4, Human CD1a/beta2m heterodimer (HEK293S, …); assay: SPR (Biacore 3000): biotinylated OX116 scFv on a streptavidin chip, CD1a-SM24:1 (CD1a loaded with sphingomyelin 24:1) injected up to 1000 nM; 1:1 specific binding fit; unit from the legend paragraph 293
# Description: as §3
Molecule,Fluorescence Intensity Geomean (normalized to background) (fold over background) [5],binding result [6],binding result [7],binding result [8],Fluorescence Intensity Geomean (normalized to background) (fold over background) [9],Optical Density (OD) [10],Optical Density (OD) [11],Fluorescence Intensity Geomean (normalized to background) (fold over background) [12],Optical Density (OD) [13],Fluorescence Intensity Geomean (normalized to background) (fold over background) [14],Optical Density (OD) [15],also measured
SK9 (antibody),–,–,–,–,–,–,–,–,–,–,–,"CD1a+ (gate frequency, percent of plotted cells; unit not given) [1]: 84.9; CD1a+ (gate frequency, percent of plotted cells; unit not given) [2]: 87.4"
HI149 (antibody),–,–,–,–,–,–,–,–,–,–,–,"CD1a+ (gate frequency, percent of plotted cells; unit not given) [3]: 82.2; CD1a+ (gate frequency, percent of plotted cells; unit not given) [4]: 46.6"
"77A (VR11851) (antibody, V domains shown, V regions were 'cloned as either rabbit or mouse full length antibodies'; also called OX77a; antibody 77a) VH: QSVEESGGRLVTPGTPLTLTCTVSGFSLSSYAMSWVRQAPGKGLEWIGIISSSGTTYYASWAKGRFTISKTSTTVDLKITSPTTEDTATYFCARVDYYSSGWGGLWGPGTLVTVSS VL: AVEMTQTPASMSAAVGGTVTIKCQASEDIYSNLAWYQQKPGQPPKLLIYGASTLASGVPSRFKGSGSGTEYTLTISGVQCDDAATYYCQCTYDTSSYGNTFGGGTEMVVE",1.7,no binding (tested: 100 µg/ml),no binding (tested: 100 µg/ml),no binding (tested: 100 µg/ml),1.4,0.24 OD,0.1 OD,5.7,0.43 OD,10.6,0.52 OD,–
"110 (VR12112) (antibody, V domains shown, V regions were 'cloned as either rabbit or mouse full length antibodies'; also called OX110; antibody 110) VH: QSVEESGGRLVTPGTPLTLTCTVSGFSLSSYAMIWVRQAPGKGLEWIGIINSSDNTHYATWAKGRFTISKTSTTVDLKITSPTTEDTATYFCARDPYDYGYGWYFDLWGPGTLVTVSS VL: AQVLTQTPSPVSAAVGGTVTINCQASQSVFNNKNLAWYQQKPGQPPKLLIYKASTLASGVSSRFKGSGSGTQFALTISGVQCDDAATYYCQGEFSCSSTDCVTFGGGTEVVVK",1.2,no binding (tested: 100 µg/ml),no binding (tested: 100 µg/ml),no binding (tested: 100 µg/ml),13.6,0.53 OD,0.22 OD,3.3,0.94 OD,–,0.86 OD,–
"111 (VR12113) (antibody, V domains shown, also called OX111) VH: QSVEESGGRLVTPGTPLTLTCTASGFSLSTYAMSWVRQAPGKGLEWIGIISSSGSTYYASWAKGRFTISKTSTTVDLKITSPTTEDTATYFCARETWYWLDLWGQGTLVTVSS VL: AVEMTQTPASVSAAVGGTVTINCQASEDIYSNLAWYQQKPGQPPKLLIYGASTLASGVPSRFKGSGSGTEYTLTISGVQCDDAATYYCQCAYDSSSYGTPFGGGTEVVVK",8.9,no binding (tested: 100 µg/ml),no binding (tested: 100 µg/ml),no binding (tested: 100 µg/ml),16.3,0.66 OD,0.48 OD,25.8,0.69 OD,12.9,0.79 OD,–
"116 (VR12117) (antibody, V domains shown, also called OX116) VH: QSVEESGGRLVTPGTPLTLTCTVSGFSLSNYAMSWVRQAPGKGLEWIGIIYTTGFTYYASWVKGRFTISKTSTTVDLKITSPTTEDTATYFCARGLATYVSPPTRLDLWGQGTLVTVSS VL: AQVLTQTPSPVSAAVGGTVTINCQASQSIYNSKNLAWYQQKPGQPPKLLIYSASTLASGVPSRFKGSGSGTQFTLTISDLECDDAATYYCQGEFSCSSVDCATFGGGTEVVVK",1,no binding (tested: 100 µg/ml),no binding (tested: 100 µg/ml),no binding (tested: 100 µg/ml),1.7,0.07 OD,0.07 OD,1,0.14 OD,0.8,0.16 OD,–
"OX16 scFv (scFv, biotinylated on the C-terminal biotinylation tag (SPR only), The entry holds the leader, VH, Gly-Ser linker, VL, 3C site, BirA tag and His tag; For crystallisation the BirA and His tags were cut off with 3C protease; also called 16 ScFv full; single chain variable construct of OX16) scFv: DAEVQLVESGGGLVKPGGSLKLSCAASGFTFSNYAMSWVRQTPEKRLEWVAAINSNGGSAYYPDTVKDRFTISRDNAKNTLYLQMSSLRSEDTALYYCARRFYYDYGWFAYWGQGTLVTVSSGGGGSGGGGSGGGGSDIVLTQSPASLSASVGETVTITCRASENIDSYLAWYQQKQGKSPQLLVYAATLLADGVPSRFSGSGSGTQYSLKINSLQSEDVARYYCQHYYSSPWTFGGGTKLEIKSGLEVLFQGPGSGLNDIFEAQKIEWHEHHHHHH",–,–,–,–,–,–,–,–,–,–,–,Kd [16]: 476 nM; Kd [17]: 1270 nM; Kd [18]: 860 nM; Kd [19]: 1010 nM
"OX116 scFv (scFv, biotinylated on the C-terminal biotinylation tag (SPR only), The entry holds the leader, VH, linker, VL, 3C site, BirA tag and His tag; For crystallisation the BirA and His tags were cut off with 3C protease; also called OX116 Ab fragment) scFv: DAQSVEESGGRLVTPGTPLTLTCTVSGFSLSNYAMSWVRQAPGKGLEWIGIIYTTGFTYYASWVKGRFTISKTSTTVDLKITSPTTEDTATYFCARGLATYVSPPTRLDLWGQGTLVTVSSGGGGSGGGGSGGGGSAQVLTQTPSPVSAAVGGTVTINCQASQSIYNSKNLAWYQQKPGQPPKLLIYSASTLASGVPSRFKGSGSGTQFTLTISDLESDDAATYYCQGEFSCSSVDCATFGGGTEVVVKSGLEVLFQGPGSGLNDIFEAQKIEWHEHHHHHH",–,–,–,–,–,–,–,–,–,–,–,Kd [20]: 483 nM; Kd [21]: 1520 nM; Kd [22]: 329 nM; Kd [23]: 529 nM
